Data set [1] deals with T1, CaRGC (homodimeric, full-length).
T1 construct: homodimer; crude membrane fraction (HEK293T); gene as used in Scheib et al 2018
Description: cGMP by reverse-phase HPLC, Hill fit, crude membranes. The settings on record: light-triggered; 10 mM MgCl2; HEPES pH 7.4. It is filed as biochemical, Catenaria anguillulae.

Substrate in data set [2]: Nc1nc2c(ncn2[C@@H]2O[C@H](COP(=O)(O)OP(=O)(O)OP(=O)(O)O)[C@@H](O)[C@H]2O)c(=O)[nH]1
In words: cGMP by reverse-phase HPLC, Hill fit. As to conditions: GTP:MnCl2 1:2. It is filed as biochemical, Rhizoclosmatium globosum.

From PMC12264004, “Super-resolution imaging of native fluorescent photoreceptors in chytrid fungal eyes” (The EMBO Journal, 2025) come the findings set out here.

Turning to `Nc1nc2c(ncn2[C@@H]2O[C@H](COP(=O)(O)OP(=O)(O)OP(=O)(O)O)[C@@H](O)[C@H]2O)c(=O)[nH]1` [GTP], the Michaelis-Menten constant (Km) (usually the concentration of substrate that gives half-maximal velocity) in data set [1] worked out at 470 ± 50 µM.

B1: RGC2-cat/NeoR-cat (Rhizoclosmatium globosum) (protein)
chain 1: ATGSEEYSSVTVFFSDVTNFHALSNKNSTKEMLATLNKLWIEYDVICKRWGVYKVETIGDAFLGVVGAPERVPDHAERAANFAVDVISMVQDFRTDKGEELITRVGLNSGPITAGILGDSNPHWCIVGDAVNTASRMESTSKPMRIHISENTYKLIKNKGFRLEGPDVMNIKGKGTMNTYWINGRS
chain 2: TGAEEYSCVTVFFSDIANFTPLSQRTSTKDMLASLNNMWIEYDKISKKWGMYKVETIGDAFLGVVGAPDRVPDHAERAAEFSIDIIDMIKDFRLVTGEPIQIRAGLNSGPVTAGILGESNPHWCIVGDTVTIASKMEATSKHMKIHIAESTFNLIKSSGKFRTSDSEPVTIKGNVINTFFIEGRA
notes: equimolar mixture of purified C-terminally His-tagged catalytic domains (E. coli); heterodimer
In the case of B1, the Km in data set [2] (equimolar mixture) stood at 980 µM.

B2: RGC1-cat (Rhizoclosmatium globosum) (protein)
chain: NGAEEYASVTVFFSDITNFVALSGKSSTKDMLATLNKLWVEYDVICKRWGVYKVETIGDAFLGVVGAPDRIPDHAERAANFAIDVIRMVQDFRTVNDEEIVTRIGLNSGPITAGILGDSNPHWCIVGDAVNTASRMESTSKPMRIHISENTYKLINGKGFKLEGPDVMNIKGKGTMNTYWINGRG
notes: soluble catalytic domain aa 365-551, C-terminal His-tag, E. coli ArcticExpress (DE3), 24,997 g/mol, homodimer
B2: the Km in data set [2] was 5530 µM.

B3: RGC1-cat/NeoR-cat (Rhizoclosmatium globosum) (protein)
chain 1: B2 chain
chain 2: B1 chain 2
notes: equimolar mixture of purified C-terminally His-tagged catalytic domains (E. coli); heterodimer, some RGC1-cat homodimer remains
As for B3, the Km in data set [2] (equimolar mixture) stood at 1540 µM.
